First the molecules themselves.
B1: Glucocorticoid receptor, residues 419 to 494; numbered along this chain, P04150 (parent)
chain: KLCLVCSDEASGCHYGVLTCGSCKVFFKRAVEGQHNYLCAGRNDCIIDKIRRKNCPACRYRKCLQAGMNLEARKTK

± gives the uncertainty stated by the source.

The data set covers variants of B1. Nature of the data set: abundance fitness (aPCA) (normalised: wild type 0, dead -1); higher = more abundant; growth selection in yeast, the domain comes from the species named. Particulars: Homo sapiens.
Take KLCLVCSDEASGCHYGVLTCGSRKVFFKRAVEGQHNYLCAGRNDCIIDKIRRKNCPACRYRKCLQAGMNLEARKTK: the abundance fitness is -0.056 ± 0.36.
The value for KLCLVCSDEASGCHYGVLTCGSCKWFFKRAVEGQHNYLCAGRNDCIIDKIRRKNCPACRYRKCLQAGMNLEARKTK was -0.039 ± 0.062; that for KLCLVCSDEASGCHYGVLTCGSCKPFFKRAVEGQHNYLCAGRNDCIIDKIRRKNCPACRYRKCLQAGMNLEARKTK was -0.614 ± 0.13; that for KLCLVCSDEASGCHYGVLTCGSCKMFFKRAVEGQHNYLCAGRNDCIIDKIRRKNCPACRYRKCLQAGMNLEARKTK was -0.094 ± 0.067.
The value for KLCLVCSDEASGCHYGVLTCGSCKFFFKRAVEGQHNYLCAGRNDCIIDKIRRKNCPACRYRKCLQAGMNLEARKTK was -0.005 ± 0.064.
With KLCLVCSDEASGCHYGVLTCGSCKIFFKRAVEGQHNYLCAGRNDCIIDKIRRKNCPACRYRKCLQAGMNLEARKTK, the abundance fitness is 0.021 ± 0.075.
For the variant KLCLVCSDEASGCHYGVLTCGSCKAFFKRAVEGQHNYLCAGRNDCIIDKIRRKNCPACRYRKCLQAGMNLEARKTK, the abundance fitness was 0.045 ± 0.056.
The value for KLCLVCSDEASGCHYGVLTCGSCKEFFKRAVEGQHNYLCAGRNDCIIDKIRRKNCPACRYRKCLQAGMNLEARKTK was 0.051 ± 0.076; that for KLCLVCSDEASGCHYGVLTCGSCKNFFKRAVEGQHNYLCAGRNDCIIDKIRRKNCPACRYRKCLQAGMNLEARKTK was -0.081 ± 0.09; that for KLCLVCSDEASGCHYGVLTCGSCKCFFKRAVEGQHNYLCAGRNDCIIDKIRRKNCPACRYRKCLQAGMNLEARKTK was 0.043 ± 0.063.
Under KLCLVCSDEASGCHYGVLTCGSCKQFFKRAVEGQHNYLCAGRNDCIIDKIRRKNCPACRYRKCLQAGMNLEARKTK stands 0.015 ± 0.087; under KLCLVCSDEASGCHYGVLTCGSCKHFFKRAVEGQHNYLCAGRNDCIIDKIRRKNCPACRYRKCLQAGMNLEARKTK, 0.06 ± 0.069.
In the case of KLCLVCSDEASGCHYGVLTCGSCKSFFKRAVEGQHNYLCAGRNDCIIDKIRRKNCPACRYRKCLQAGMNLEARKTK, the abundance fitness is -0.017 ± 0.05.
The value for KLCLVCSDEASGCHYGVLTCGSCKDFFKRAVEGQHNYLCAGRNDCIIDKIRRKNCPACRYRKCLQAGMNLEARKTK was 0.017 ± 0.086; that for KLCLVCSDEASGCHYGVLTCGSCKYFFKRAVEGQHNYLCAGRNDCIIDKIRRKNCPACRYRKCLQAGMNLEARKTK was -0.129 ± 0.098.
The value for KLCLVCSDEASGCHYGVLTCGSCKTFFKRAVEGQHNYLCAGRNDCIIDKIRRKNCPACRYRKCLQAGMNLEARKTK was -0.019 ± 0.062; that for KLCLVCSDEASGCHYGVLTCGSCKGFFKRAVEGQHNYLCAGRNDCIIDKIRRKNCPACRYRKCLQAGMNLEARKTK was 0.008 ± 0.054; that for KLCLVCSDEASGCHYGVLTCGSCKRFFKRAVEGQHNYLCAGRNDCIIDKIRRKNCPACRYRKCLQAGMNLEARKTK was 0.085 ± 0.044.
With KLCLVCSDEASGCHYGVLTCGSCPVFFKRAVEGQHNYLCAGRNDCIIDKIRRKNCPACRYRKCLQAGMNLEARKTK, the abundance fitness was -0.096 ± 0.072.
The value for KLCLVCSDEASGCHYGVLTCGSCNVFFKRAVEGQHNYLCAGRNDCIIDKIRRKNCPACRYRKCLQAGMNLEARKTK was -0.028 ± 0.061; that for KLCLVCSDEASGCHYGVLTCGSCDVFFKRAVEGQHNYLCAGRNDCIIDKIRRKNCPACRYRKCLQAGMNLEARKTK was -0.006 ± 0.087; that for KLCLVCSDEASGCHYGVLTCGSCFVFFKRAVEGQHNYLCAGRNDCIIDKIRRKNCPACRYRKCLQAGMNLEARKTK was -0.092 ± 0.066.
In the case of KLCLVCSDEASGCHYGVLTCGSCLVFFKRAVEGQHNYLCAGRNDCIIDKIRRKNCPACRYRKCLQAGMNLEARKTK, the abundance fitness was -0.134 ± 0.045.
Under KLCLVCSDEASGCHYGVLTCGSCSVFFKRAVEGQHNYLCAGRNDCIIDKIRRKNCPACRYRKCLQAGMNLEARKTK stands 0.062 ± 0.055.
For the variant KLCLVCSDEASGCHYGVLTCGSCEVFFKRAVEGQHNYLCAGRNDCIIDKIRRKNCPACRYRKCLQAGMNLEARKTK, the abundance fitness is 0.011 ± 0.079.
As to KLCLVCSDEASGCHYGVLTCGSCIVFFKRAVEGQHNYLCAGRNDCIIDKIRRKNCPACRYRKCLQAGMNLEARKTK, the abundance fitness is -0.245 ± 0.072.
Turning to KLCLVCSDEASGCHYGVLTCGSCQVFFKRAVEGQHNYLCAGRNDCIIDKIRRKNCPACRYRKCLQAGMNLEARKTK, the abundance fitness came out at 0.044 ± 0.06.
For the variant KLCLVCSDEASGCHYGVLTCGSCGVFFKRAVEGQHNYLCAGRNDCIIDKIRRKNCPACRYRKCLQAGMNLEARKTK, the abundance fitness is -0.018 ± 0.051.
The value for KLCLVCSDEASGCHYGVLTCGSCTVFFKRAVEGQHNYLCAGRNDCIIDKIRRKNCPACRYRKCLQAGMNLEARKTK was -0.096 ± 0.059; that for KLCLVCSDEASGCHYGVLTCGSCYVFFKRAVEGQHNYLCAGRNDCIIDKIRRKNCPACRYRKCLQAGMNLEARKTK was 0.017 ± 0.06.
Under KLCLVCSDEASGCHYGVLTCGSCRVFFKRAVEGQHNYLCAGRNDCIIDKIRRKNCPACRYRKCLQAGMNLEARKTK stands -0.105 ± 0.054; under KLCLVCSDEASGCHYGVLTCGSCWVFFKRAVEGQHNYLCAGRNDCIIDKIRRKNCPACRYRKCLQAGMNLEARKTK, -0.037 ± 0.089; under KLCLVCSDEASGCHYGVLTCGSCHVFFKRAVEGQHNYLCAGRNDCIIDKIRRKNCPACRYRKCLQAGMNLEARKTK, -0.026 ± 0.069.
For the variant KLCLVCSDEASGCHYGVLTCGSCMVFFKRAVEGQHNYLCAGRNDCIIDKIRRKNCPACRYRKCLQAGMNLEARKTK, the abundance fitness was -0.087 ± 0.077.
Turning to KLCLVCSDEASGCHYGVLTCGSCAVFFKRAVEGQHNYLCAGRNDCIIDKIRRKNCPACRYRKCLQAGMNLEARKTK, the abundance fitness is -0.019 ± 0.05.
The value for KLCLVCSDEASGCHYGVLTCGSCCVFFKRAVEGQHNYLCAGRNDCIIDKIRRKNCPACRYRKCLQAGMNLEARKTK was 0.011 ± 0.065.

These data come from the Human Domainome abundance scans (Beltran et al. 2025).
